In patent US20160347841A1 (UNIVERSIDAD NACIONAL AUT NOMA DE M XICO, published 2016):

Target: T1, DEC-205 receptor of dog spleen cells (dog, UniProt A0A8I3Q134 28-1723)
T1 construct: whole, on cells; It only reports that no 205 kDa band was isolated
Assay: immunoprecipitation from spleen white cell lysate, SDS-PAGE
Experimental: For this purpose Jurkat cells (the cell line of human T lymphocytes) as well as white cells obtained from the spleens of different animals (pigs and dogs) were lysed in an immunoprecipitation buffer (PBS pH 7.4, 1% Triton X-100 with protease inhibitor). […] Then, 50 μL of A-Sepharose protein (Pierce, Rockford, Ill., USA) was used for immunoprecipitation, with incubation being done for one hour at ambient temperature. The immune complexes that were formed were washed extensively. The immunoprecipitates were eluted by boiling for five minutes in a sample buffer with SDS. These precipitates were analyzed on a 10% SDS-PAGE gel under reducing conditions using molecular weight markers. […] The molecular weights are indicated.

T1 sequence (A0A8I3Q134 entry or part of it): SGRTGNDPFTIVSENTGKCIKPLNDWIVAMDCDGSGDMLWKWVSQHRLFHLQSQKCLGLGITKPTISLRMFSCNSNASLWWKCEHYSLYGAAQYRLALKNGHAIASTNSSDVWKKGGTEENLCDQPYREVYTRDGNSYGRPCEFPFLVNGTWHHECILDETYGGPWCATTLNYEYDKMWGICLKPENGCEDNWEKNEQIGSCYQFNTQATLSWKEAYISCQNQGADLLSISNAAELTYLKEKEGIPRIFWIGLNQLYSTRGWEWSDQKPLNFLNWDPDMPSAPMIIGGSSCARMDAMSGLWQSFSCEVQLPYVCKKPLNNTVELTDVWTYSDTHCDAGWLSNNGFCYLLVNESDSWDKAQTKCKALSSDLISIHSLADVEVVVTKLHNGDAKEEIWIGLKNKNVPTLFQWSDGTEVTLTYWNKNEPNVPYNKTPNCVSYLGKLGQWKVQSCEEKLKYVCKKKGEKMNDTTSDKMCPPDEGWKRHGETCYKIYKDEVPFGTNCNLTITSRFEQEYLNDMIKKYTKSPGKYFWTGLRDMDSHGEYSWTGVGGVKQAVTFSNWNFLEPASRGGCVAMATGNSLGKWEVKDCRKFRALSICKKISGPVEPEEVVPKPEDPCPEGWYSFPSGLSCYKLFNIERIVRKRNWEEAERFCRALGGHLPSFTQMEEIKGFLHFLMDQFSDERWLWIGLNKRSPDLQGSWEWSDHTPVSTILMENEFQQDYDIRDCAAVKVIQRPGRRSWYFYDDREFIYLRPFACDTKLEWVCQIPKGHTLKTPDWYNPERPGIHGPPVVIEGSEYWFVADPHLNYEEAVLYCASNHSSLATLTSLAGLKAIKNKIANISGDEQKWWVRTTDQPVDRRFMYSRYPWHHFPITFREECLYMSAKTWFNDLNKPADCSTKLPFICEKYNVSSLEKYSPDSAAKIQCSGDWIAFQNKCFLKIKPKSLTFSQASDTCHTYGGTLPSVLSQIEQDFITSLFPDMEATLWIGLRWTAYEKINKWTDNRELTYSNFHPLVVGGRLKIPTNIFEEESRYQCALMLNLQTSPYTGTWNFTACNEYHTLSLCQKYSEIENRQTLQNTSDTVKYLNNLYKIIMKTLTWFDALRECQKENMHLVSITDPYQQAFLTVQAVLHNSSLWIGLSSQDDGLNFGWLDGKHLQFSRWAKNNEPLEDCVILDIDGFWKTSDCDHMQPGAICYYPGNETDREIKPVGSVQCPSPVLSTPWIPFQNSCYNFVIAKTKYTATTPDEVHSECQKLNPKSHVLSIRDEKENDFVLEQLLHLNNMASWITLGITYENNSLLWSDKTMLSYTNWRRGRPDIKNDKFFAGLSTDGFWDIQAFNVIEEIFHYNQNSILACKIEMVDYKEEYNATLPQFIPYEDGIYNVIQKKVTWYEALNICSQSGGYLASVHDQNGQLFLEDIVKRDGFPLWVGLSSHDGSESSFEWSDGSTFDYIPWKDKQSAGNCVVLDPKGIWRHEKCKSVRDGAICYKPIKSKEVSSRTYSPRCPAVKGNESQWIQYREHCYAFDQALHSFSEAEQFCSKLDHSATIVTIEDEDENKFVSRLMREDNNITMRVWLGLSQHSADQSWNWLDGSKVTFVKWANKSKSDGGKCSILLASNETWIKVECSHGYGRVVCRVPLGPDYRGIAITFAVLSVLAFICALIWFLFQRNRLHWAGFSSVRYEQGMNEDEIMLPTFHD

binding result: no binding
B1: murine monoclonal antibody 2F2E8E3B6 anti-CTLD-2 (antibody, IgG2a, V domains shown)
VH: EVQLQQSTAEFVKPGASVKLSCTASGFNIKDTYIHWVKQRPEQGLEWIGRIDPANGNTRYDPKFQGKATMTADTSSNTAYLQLSSLTSEDTAVYYCARYDVTYWGQGTLVTVS
VL: DIVMSQSPSSLAVSAGERVTMSCKSSQSLLNSRTRKNYLAWYQQKPGQSPKLLIYWASTRESGVPDRFTGSGSGTDFTLTISSVRAEDLAVYYCKQSYNLYTFGRGTKLEIK
notes: also called 2F2E8D3B6; AbM 2F2E8E3B6
